Laboratory results taken from patent US20180222987A1.

Molecular target: Macaca fascicularis CD3ε/δ-Fc fusion heterodimer (Macaca fascicularis) (UniProt Q95LI8)
Assay: SPR Biacore, Fab; unit inferred

Macaca fascicularis CD3ε/δ-Fc fusion heterodimer (Macaca fascicularis), sequence (chain, as listed by the source mutant, chain 1 of 2): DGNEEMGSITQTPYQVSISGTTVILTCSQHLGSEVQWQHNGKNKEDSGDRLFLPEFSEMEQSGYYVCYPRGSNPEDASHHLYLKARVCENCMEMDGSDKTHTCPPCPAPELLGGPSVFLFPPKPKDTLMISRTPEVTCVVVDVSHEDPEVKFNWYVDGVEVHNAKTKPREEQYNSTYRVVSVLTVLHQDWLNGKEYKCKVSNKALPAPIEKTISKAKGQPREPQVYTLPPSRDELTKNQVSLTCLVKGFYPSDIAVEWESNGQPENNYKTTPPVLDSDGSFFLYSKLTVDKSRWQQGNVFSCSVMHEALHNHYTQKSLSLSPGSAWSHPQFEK
Macaca fascicularis CD3ε/δ-Fc fusion heterodimer (Macaca fascicularis), sequence (Q95LI8 22-105, stated change not applied, chain 2 of 2): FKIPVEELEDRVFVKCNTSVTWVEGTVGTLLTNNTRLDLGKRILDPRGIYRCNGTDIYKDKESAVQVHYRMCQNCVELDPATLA

Binder	Kd [nM]
humanized 4B4 Fab 4B4_5 (VL2C / VH6D) (Fab, V domains shown) VH: QVQLVESGGGVVQPGRSLRLSCATSGFTFSNAWMHWVRQAPGKQLEWVAQIKARSNNYATYYADSVKGRFTISRDDSKSTIYLQMNSLRAEDTAVYYCRGTYYASKPFDYWGQGTLVTVSS VL: DIVMTQTPLSLSVTPGQPASISCKSSQSLVHDNGNTYLSWSLQKPGQSPQVLIYKVSNRFSGVPDRFSGSGSGTDFTLKISRVEAEDVGVYYCGQGTQYPFTFGSGTKLEIK	16.6
humanized 4B4 Fab 4B4_6 (VL1a / VH1A) (Fab, V domains shown) VH: QVQLVETGGGLVKPGQSLKLTCATSGFTFSNAWMHWVRQSPEKGLEWVAQIKARSNNYATYYAESVKGRFTISRDDSKSTIYLQMNSLTPEDTAIYYCRGTYYASKPFDYWGQGVMVTVSS VL: DVVMTQTPVSLSVSVGGRVSISCRSSQSLVHDNGNTYLSWSLQKPGKSPKVLIYKVSNRFSGVSSRFTGSGSGTDFTLKISSVQPDDLGVYYCGQGTQYPFTFGSGTKLEIK	1.19
humanized 4B4 Fab 4B4_7 (VL1b / VH1A) (Fab, V domains shown) VH: QVQLVETGGGLVKPGQSLKLTCATSGFTFSNAWMHWVRQSPEKGLEWVAQIKARSNNYATYYAESVKGRFTISRDDSKSTIYLQMNSLTPEDTAIYYCRGTYYASKPFDYWGQGVMVTVSS VL: DVVMTQTPVSLSVSVGGRVSISCRSSQSLVHDNANTYLSWSLQKPGKSPKVLIYKVSNRFSGVSSRFTGSGSGTDFTLKISSVQPDDLGVYYCGQGTQYPFTFGSGTKLEIK	7.28
humanized 4B4 Fab 4B4_9 (VL2B / VH2A) (Fab, V domains shown) VH: EVQLVETGGGLVQPGGSLKLTCATSGFTFSNAWMHWVRQSPEKGLEWVAQIKARSNNYATYYAESVKGRFTISRDDSKSTIYLQMNSLRAEDTAIYYCRGTYYASKPFDYWGQGVMVTVSS VL: DVVMTQTPVSLSVSPGGPVSISCRSSQSLVHDNANTYLSWSLQKPGQSPQVLIYKVSNRFSGVSDRFTGSGSGTDFTLKISRVEPDDLGVYYCGQGTQYPFTFGSGTKLEIK	12.1
humanized 4B4 Fab 4B4_10 (VL1_CM2 / VH6_BM2) (Fab, V domains shown) VH: QVQLVESGGRVVQPGRSLRLTCAASGFTFSNAWMHWVRQAPGKQLEWVAQIKARSNNYATYYAESVKGRFTISRDDSKSTIYLQMNSLRAEDTAVYYCRGTYYASKPFDYWGQGTTVTVSS VL: DVVMTQSPLSLSVTLGQPVSISCRSSQSLVHDNGNTYLSWSLQRPGQSPRVLIYKVSNRFSGVPDRFSGSGSGTDFTLKISRVEAEDVGVYYCGQGTQYPFTFGSGTKLEIK	8.94
humanized 4B4 Fab 4B4_11 (VL1_CM3 / VH6_BM2) (Fab, V domains shown) VH: QVQLVESGGRVVQPGRSLRLTCAASGFTFSNAWMHWVRQAPGKQLEWVAQIKARSNNYATYYAESVKGRFTISRDDSKSTIYLQMNSLRAEDTAVYYCRGTYYASKPFDYWGQGTTVTVSS VL: DVVMTQSPLSLSVTLGQPVSISCRSSQSLVHDNANTYLSWSLQRPGQSPRVLIYKVSNRFSGVPDRFSGSGSGTDFTLKISRVEAEDVGVYYCGQGTQYPFTFGSGTKLEIK	20.4
humanized 4B4 Fab 4B4_17 (VL2A / VH2B) (Fab, V domains shown) VH: EVQLVETGGGLVQPGGSLKLTCATSGFTFSNAWMHWVRQSPEKGLEWVAQIKARSNNYATYYADSVKGRFTISRDDSKSTIYLQMNSLRAEDTAIYYCRGTYYASKPFDYWGQGVMVTVSS VL: DVVMTQTPVSLSVSPGGPVSISCRSSQSLVHDNGNTYLSWSLQKPGQSPQVLIYKVSNRFSGVSDRFTGSGSGTDFTLKISRVEPDDLGVYYCGQGTQYPFTFGSGTKLEIK	9.07
humanized 4B4 Fab 4B4_20 (VL2F / VH6C) (Fab, V domains shown) VH: QVQLVESGGGVVQPGRSLRLSCAASGFTFSNAWMHWVRQAPGKQLEWVAQIKARSNNYATYYADSVKGRFTISRDDSKSTLYLQMNSLRAEDTAVYYCRGTYYASKPFDYWGQGTLVTVSS VL: DIVMTQTPLSLSVTPGQPASISCKSSQSLVHDNANTYLSWYLQKPGQSPQSLIYKVSNRFSGVPDRFSGSGSGTDFTLKISRVEAEDVGVYYCGQGTQYPFTFGSGTKVEIK	43.4
